From PMC10538557, “Vps60 initiates alternative ESCRT-III filaments” (The Journal of Cell Biology, 2023)

B2: Vps60 (natural protein, S. cerevisiae, UniProt Q03390 1-229, looked up)
chain: MNRIFGYGNKKSHDQLLQESNQSMNQAQQSLSNRISQLDTQIAQLNFQLQNIQKNLQRSNNKQPSLRKQALKILNKRKQLENMKDSLDSQSWSMTQAQLTNDNLQNTMITINALKQTNNAMKAQYGKINIDKLQDMQDEMLDLIEQGDELQEVLAMNNNSGELDDISDAELDAELDALAQEDFTLPTSENSLGNDMPSYLLGANAPPAFIDEEPNLDTEDKNKALESAQ
modifications: TFP-Atto-565 label (Atto565-Vps60) in the fluorescence assays; Alexa488-Vps60 also named; labeled proteins were mixed 1:1 with unlabeled proteins
notes: Vps60 (Mos10), ESCRT-III subunit of yeast; construct pGEX4T-Vps60; also called Mos10; Atto565-Vps60; source: Bl21 Escherichia coli (pGEX4T-Vps60), purified on GST-resin, on-column cleavage with TEV protease

Assays:
[1] = target: B2; experiment: negative-stain electron microscopy; LUVs (DOPC:DOPS 6:4) in 20 mM Tris, pH 6.8, 200 mM NaCl, 1 mM MgCl2, incubated with 250 nM Vps60 for 1 h at 4°C, alone or with subsets of ESCRT-III subunits (Vps2 and Vps24; Vps2, Vps24 and Did2); filaments imaged after uranyl acetate staining; conditions: both partners purified
[2] = target: T1, Vps2 (UniProt P36108 1-232, TFP-AlexaFluor-488, TFP-Atto-565 or NHS-Atto-647N label, by experiment; labeled proteins were mixed 1:1 with unlabeled proteins); experiment: recruitment on supported lipid bilayers, confocal fluorescence microscopy; SLBs covered with both Alexa488-Snf7 patches and Atto565-Vps60, incubated with Atto647-Vps2, Vps24 and Did2; time-lapse; conditions: both partners purified
T1 construct: Vps2, ESCRT-III subunit (human homolog CHMP2A); The yeast protein is surmised from the yeast nomenclature; also called Alexa488-Vps2; Vps2-Alex488
T1 sequence (looked up): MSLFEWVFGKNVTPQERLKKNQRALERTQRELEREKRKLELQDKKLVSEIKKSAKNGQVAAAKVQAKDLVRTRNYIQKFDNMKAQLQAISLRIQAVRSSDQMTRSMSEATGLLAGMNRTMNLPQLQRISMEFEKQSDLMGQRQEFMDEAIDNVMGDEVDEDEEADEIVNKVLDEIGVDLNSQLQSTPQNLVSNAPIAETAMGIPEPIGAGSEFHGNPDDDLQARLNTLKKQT

[3] = target: the molecule itself; experiment: negative-stain electron microscopy; LUVs (DOPC:DOPS 6:4) in 20 mM Tris, pH 6.8, 200 mM NaCl, 1 mM MgCl2, incubated with 250 nM Vps60 for 1 h at 4°C, alone or with subsets of ESCRT-III subunits (Vps2 and Vps24; Vps2, Vps24 and Did2); filaments imaged after uranyl acetate staining

B1: Vps24 (natural protein, UniProt P36095 1-224, looked up)
chain: MDYIKKAIWGPDPKEQQRRIRSVLRKNGRNIEKSLRELTVLQNKTQQLIKKSAKKNDVRTVRLYAKELYQINKQYDRMYTSRAQLDSVRMKIDEAIRMNTLSNQMADSAGLMREVNSLVRLPQLRNTMIELEKELMKSGIISEMVDDTMESVGDVGEEMDEAVDEEVNKIVEQYTNEKFKNVDQVPTVELAANEEEQEIPDEKVDEEADRMVNEMRERLRALQN
modifications: TFP-AlexaFluor-488 label where detected; labeled proteins were mixed 1:1 with unlabeled proteins
notes: Vps24, ESCRT-III subunit (human homolog CHMP3); The yeast protein is surmised from the yeast nomenclature; also called Alexa488-Vps24
binding result [1]: binds

B2
binding result [2]: binds | binding result [3]: binds

B3: Did2 (natural protein, UniProt P69771 1-204, looked up)
chain: MSRNSAAGLENTLFQLKFTSKQLQKQANKASKEEKQETNKLKRALNENEDISRIYASNAIRKKNERLQLLKLASRVDSVASRVQTAVTMRQVSASMGQVCKGMDKALQNMNLQQITMIMDKFEQQFEDLDTSVNVYEDMGVNSDAMLVDNDKVDELMSKVADENGMELKQSAKLDNVPEIKAKEVNVDDEKEDKLAQRLRALRG
modifications: maleimide-AlexFluor-488 label where detected; labeled proteins were mixed 1:1 with unlabeled proteins
notes: Did2, ESCRT-III subunit (human homolog CHMP1B); The yeast protein is surmised from the yeast nomenclature; also called Alexa488-Did2; Did2-Atto565
binding result [1]: binds
